Reference: PMC9897464 (2022)

B1: Cg1735CD (catalytic domain, residues 460 to 600) (domain or fragment)
chain: DRSAQIETVIARAMSQLGVQYAWGGGNANGPTLGIRDGGVADSYGDYNKVGFDCSGLTLYAFAGVGISLPHYTGYQYQHGTKVSPSEMQRGDLIFYGPGASQHVAIYLGDGQMIEAPNSGSVVKISPVRWSGMTESVVRLI

Experiments:
[1] = biological target: biotinylated Cg1735ΔCD (residues 20 to 386) (Corynebacterium glutamicum ATCC13032); assay: BLI; biotinylated Cg1735ΔCD immobilised on streptavidin biosensors; Cg1735CD 20 to 0.3125 μM or Cg1604 200 to 3.125 μM; 25 °C; HEPES 25 mM pH 7.5, NaCl 150 mM, glycerol 5%, BSA 1 mg/mL; steady-state, one-site model; apparent Kd
[2] = biological target: His_SUMO_Cg1735CC1 (CC1 domain, residues 20 to 238) (Corynebacterium glutamicum ATCC13032); assay: BLI; His_SUMO_Cg1735CC1 immobilised on Ni-NTA biosensors; Cg1735CD 20 to 0.3125 μM; 25 °C; HEPES 25 mM pH 7.5, NaCl 150 mM, glycerol 5%, BSA 1 mg/mL; steady-state, one-site model; apparent Kd
[3] = biological target: T1, biotinylated Cg1735ΔCD (residues 20 to 386) (Corynebacterium glutamicum ATCC13032, biotin (EZ-Link NHS-PEG4-Biotin, 20 molar excess; sites not stated)); assay: BLI
T1 chain: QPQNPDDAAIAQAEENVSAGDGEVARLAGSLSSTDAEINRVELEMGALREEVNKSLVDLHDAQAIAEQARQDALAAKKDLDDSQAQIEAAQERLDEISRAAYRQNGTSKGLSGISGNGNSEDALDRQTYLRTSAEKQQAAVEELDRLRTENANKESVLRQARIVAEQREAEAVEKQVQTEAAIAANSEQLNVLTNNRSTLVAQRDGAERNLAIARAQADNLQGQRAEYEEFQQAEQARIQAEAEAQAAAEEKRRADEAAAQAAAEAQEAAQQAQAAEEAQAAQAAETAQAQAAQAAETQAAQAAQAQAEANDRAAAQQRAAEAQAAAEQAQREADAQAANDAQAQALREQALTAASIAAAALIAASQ

Molecule	Kd [1]	Kd [2]	Kd [3]
Cg1604 (globular periplasmic domain, residues 36 to 295) (domain or fragment)	56 µM		
B1		1.2 µM	1.9 µM
